# Test results as given in US20160115217A1.
# Key:
# [1] = target: Notch1 (full-length receptor expressed on cells); assay: cell-based or functional assay
# [2] = target: Flt1 (VEGFR-1) on Ad-N1IC-transduced HUVEC (human) (UniProt P17948); assay: cell-based or functional assay
# Flt1 (VEGFR-1) on Ad-N1IC-transduced HUVEC (human), sequence (P17948 27-1338): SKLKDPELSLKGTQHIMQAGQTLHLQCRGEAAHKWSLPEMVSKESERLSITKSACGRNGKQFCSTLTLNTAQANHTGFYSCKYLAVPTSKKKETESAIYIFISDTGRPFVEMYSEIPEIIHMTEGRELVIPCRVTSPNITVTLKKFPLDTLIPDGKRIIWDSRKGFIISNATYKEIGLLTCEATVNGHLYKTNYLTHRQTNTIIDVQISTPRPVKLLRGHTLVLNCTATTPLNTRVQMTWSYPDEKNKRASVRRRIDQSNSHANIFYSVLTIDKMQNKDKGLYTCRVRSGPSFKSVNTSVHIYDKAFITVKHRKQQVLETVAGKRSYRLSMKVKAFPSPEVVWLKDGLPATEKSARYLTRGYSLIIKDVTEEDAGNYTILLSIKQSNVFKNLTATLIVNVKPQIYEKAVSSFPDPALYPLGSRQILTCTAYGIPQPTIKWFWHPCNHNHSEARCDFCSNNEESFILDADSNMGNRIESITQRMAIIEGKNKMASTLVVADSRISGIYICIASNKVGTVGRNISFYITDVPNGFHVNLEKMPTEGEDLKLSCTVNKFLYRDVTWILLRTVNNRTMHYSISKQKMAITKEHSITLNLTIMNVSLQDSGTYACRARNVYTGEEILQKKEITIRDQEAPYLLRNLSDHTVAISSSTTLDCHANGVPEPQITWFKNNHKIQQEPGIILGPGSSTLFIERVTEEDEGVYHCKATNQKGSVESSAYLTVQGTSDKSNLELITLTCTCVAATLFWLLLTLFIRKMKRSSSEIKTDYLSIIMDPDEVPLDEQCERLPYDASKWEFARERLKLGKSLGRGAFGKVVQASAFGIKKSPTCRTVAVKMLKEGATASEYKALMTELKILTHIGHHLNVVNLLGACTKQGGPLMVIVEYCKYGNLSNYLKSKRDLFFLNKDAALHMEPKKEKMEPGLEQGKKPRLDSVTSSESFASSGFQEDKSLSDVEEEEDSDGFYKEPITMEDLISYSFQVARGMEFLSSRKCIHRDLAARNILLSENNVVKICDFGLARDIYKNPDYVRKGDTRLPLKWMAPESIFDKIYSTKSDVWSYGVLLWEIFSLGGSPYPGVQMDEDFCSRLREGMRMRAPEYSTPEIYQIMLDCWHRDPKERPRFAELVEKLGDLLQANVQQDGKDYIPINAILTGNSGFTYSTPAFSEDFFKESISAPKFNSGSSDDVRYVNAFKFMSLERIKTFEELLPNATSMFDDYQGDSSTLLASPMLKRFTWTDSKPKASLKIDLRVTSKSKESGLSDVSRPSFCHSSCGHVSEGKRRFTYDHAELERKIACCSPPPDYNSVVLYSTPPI
Hes1 reporter gene activity [1] [fold],HUVEC buds containing multiple filopodia [2] [%],Substance
3.7,–,Jagged1 (ligand)
–,250,P1GF (placental growth factor) (ligand)
